This note sets out measurements from the supplement of paper PMC11316812.

± gives the standard deviation of the averaged measurements.

One data set has as its system MCF7. The experiment in a line: percentage of EdU-negative (G0-arrested) nuclei per well, 72 h; higher = more G0 arrest. The settings on record: reference: sequence is the full UniProt precursor, the tested protein was the secreted form or ectodomain.
Another data set relates to hTERT-HMEC. The description is as above. The settings on record: reference: sequence is the full UniProt precursor, the tested protein was the secreted form or ectodomain.
Setting [1] is: protein concentration 0.01725 µM.
The mark [2] stands for this setting: protein concentration 0.1725 µM.
[3] abbreviates: protein concentration 0.0257143 µM.
[4] abbreviates: protein concentration 0.257143 µM.
Where [5] appears, read: protein concentration 0.00725 µM.
Where [6] appears, read: protein concentration 0.0725 µM.
The mark [7] stands for this setting: protein concentration 0.021155 µM.
Setting [8] is: protein concentration 0.21155 µM.
[9] abbreviates: protein concentration 0.0357143 µM.
[10] abbreviates: protein concentration 0.357143 µM.
The mark [11] stands for this setting: protein concentration 0.0225 µM.
[12] abbreviates: protein concentration 0.0191429 µM.
The mark [13] stands for this setting: protein concentration 0.191429 µM.
Setting [14] is: protein concentration 0.0322857 µM.
Where [15] appears, read: protein concentration 0.0337143 µM.
Setting [16] is: protein concentration 0.322857 µM.
Setting [17] is: protein concentration 0.337143 µM.
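Further: secreted proteins added to cultured cells, EdU pulse at the end, nuclei found by Hoechst imaging, EdU status from nuclear versus surrounding ring intensity ratio, PBS as neutral control.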

Q9BXJ3, sequence (chain, as listed by the source): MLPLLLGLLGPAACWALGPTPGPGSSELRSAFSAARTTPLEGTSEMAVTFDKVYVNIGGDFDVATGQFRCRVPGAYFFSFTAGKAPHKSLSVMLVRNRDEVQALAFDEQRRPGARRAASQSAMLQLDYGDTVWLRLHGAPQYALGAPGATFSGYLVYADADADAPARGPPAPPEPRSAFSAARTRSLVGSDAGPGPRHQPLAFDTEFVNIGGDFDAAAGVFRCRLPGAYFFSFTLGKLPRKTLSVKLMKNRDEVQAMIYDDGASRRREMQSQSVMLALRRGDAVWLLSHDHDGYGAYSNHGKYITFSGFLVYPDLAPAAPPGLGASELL

In the case of “MGAASGRRGPGLLLPLPLLLLLPPQPALALDPGLQPGNFSADEAGAQLFAQSYNSSAEQVLFQSVAASWAHDTNITAENARRQEEAALLSQEFAEAWGQKAKELYEPIWQNFTDPQLRRIIGAVRTLGSANLPLAKRQQYNALLSNMSRIYSTAKVCLPNKTATCWSLDPDLTNILASSRSYAMLLFAWEGWHNAAGIPLKPLYEDFTALSNEAYKQDGFTDTGAYWRSWYNSPTFEDDLEHLYQQLEPLYLNLHAFVRRALHRRYGDRYINLRGPIPAHLLGDMWAQSWENIYDMVVPFPDKPNLDVTSTMLQQGWNATHMFRVAEEFFTSLELSPMPPEFWEGSMLEKPADGREVVCHASAWDFYNRKDFRIKQCTRVTMDQLSTVHHEMGHIQYYLQYKDLPVSLRRGANPGFHEAIGDVLALSVSTPEHLHKIGLLDRVTNDTESDINYLLKMALEKIAFLPFGYLVDQWRWGVFSGRTPPSRYNFDWWYLRTKYQGICPPVTRNETHFDAGAKFHVPNVTPYIRYFVSFVLQFQFHEALCKEAGYEGPLHQCDIYRSTKAGAKLRKVLQAGSSRPWQEVLKDMVGLDALDAQPLLKYFQPVTQWLQEQNQQNGEVLGWPEYQWHPPLPDNYPEGIDLVTDEAEASKFVEEYDRTSQVVWNEYAEANWNYNTNITTETSKILLQKNMQIANHTLKYGTQARKFDVNQLQNTTIKRIIKKVQDLERAALPAQELEEYNKILLDMETTYSVATVCHPNGSCLQLEPDLTNVMATSRKYEDLLWAWEGWRDKAGRAILQFYPKYVELINQAARLNGYVDAGDSWRSMYETPSLEQDLERLFQELQPLYLNLHAYVRRALHRHYGAQHINLEGPIPAHLLGNMWAQTWSNIYDLVVPFPSAPSMDTTEAMLKQGWTPRRMFKEADDFFTSLGLLPVPPEFWNKSMLEKPTDGREVVCHASAWDFYNGKDFRIKQCTTVNLEDLVVAHHEMGHIQYFMQYKDLPVALREGANPGFHEAIGDVLALSVSTPKHLHSLNLLSSEGGSDEHDINFLMKMALDKIAFIPFSYLVDQWRWRVFDGSITKENYNQEWWSLRLKYQGLCPPVPRTQGDFDPGAKFHIPSSVPYIRYFVSFIIQFQFHEALCQAAGHTGPLHKCDIYQSKEAGQRLATAMKLGFSRPWPEAMQLITGQPNMSASAMLSYFKPLLDWLRTENELHGEKLGWPQYNWTPNSARSEGPLPDSGRVSFLGLDLDAQQARVGQWLLLFLGIALLVATLGLSQRLFSIRHRSLHRHSHGPQFGSEVELRHS”, the “percentage of EdU-negative” value in the data set on MCF7 (setting [1]) came to 27.2 ± 0.68%; in the data set with MCF7 (setting [2]), 28.2 ± 4.2%; in the data set with hTERT-HMEC (setting [1]), 4.7 ± 0.63%; in the data set with hTERT-HMEC (setting [2]) it was 5.68 ± 0.65%.
In the case of “MAEAKTHWLGAALSLIPLIFLISGAEAASFQRNQLLQKEPDLRLENVQKFPSPEMIRALEYIENLRQQAHKEESSPDYNPYQGVSVPLQQKENGDESHLPERDSLSEEDWMRIILEALRQAENEPQSAPKENKPYALNSEKNFPMDMSDDYETQQWPERKLKHMQFPPMYEENSRDNPFKRTNEIVEEQYTPQSLATLESVFQELGKLTGPNNQKRERMDEEQKLYTDDEDDIYKANNIAYEDVVGGEDWNPVEEKIESQTQEEVRDSKENIEKNEQINDEMKRSGQLGIQEEDLRKESKDQLSDDVSKVIAYLKRLVNAAGSGRLQNGQNGERATRLFEKPLDSQSIYQLIEISRNLQIPPEDLIEMLKTGEKPNGSVEPERELDLPVDLDDISEADLDHPDLFQNRMLSKSGYPKTPGRAGTEALPDGLSVEDILNLLGMESAANQKTSYFPNPYNQEKVLPRLPYGAGRSRSNQLPKAAWIPHVENRQMAYENLNDKDQELGEYLARMLVKYPEIINSNQVKRVPGQGSSEDDLQEEEQIEQAIKEHLNQGSSQETDKLAPVSKRFPVGPPKNDDTPNRQYWDEDLLMKVLEYLNQEKAEKGREHIAKRAMENM”, the “percentage of EdU-negative” value with MCF7 (protein concentration 0.006 µM) turned out to be 26.9 ± 0.33%; in the data set with MCF7 (protein concentration 0.06 µM), 27.1 ± 1.7%; in the data set with hTERT-HMEC (protein concentration 0.006 µM) it was 5.24 ± 0.54%; in the data set on hTERT-HMEC (protein concentration 0.06 µM) it was 5.44 ± 0.097%.
With “MWLRLGPPSLSLSPKPTVGRSLCLTLWFLSLALRASTQAPAPTVNTHFGKLRGARVPLPSEILGPVDQYLGVPYAAPPIGEKRFLPPEPPPSWSGIRNATHFPPVCPQNIHTAVPEVMLPVWFTANLDIVATYIQEPNEDCLYLNVYVPTEDVKRISKECARKPNKKICRKGGSGAKKQGEDLADNDGDEDEDIRDSGAKPVMVYIHGGSYMEGTGNMIDGSILASYGNVIVITLNYRVGVLGFLSTGDQAAKGNYGLLDQIQALRWVSENIAFFGGDPRRITVFGSGIGASCVSLLTLSHHSEGLFQRAIIQSGSALSSWAVNYQPVKYTSLLADKVGCNVLDTVDMVDCLRQKSAKELVEQDIQPARYHVAFGPVIDGDVIPDDPEILMEQGEFLNYDIMLGVNQGEGLKFVEGVVDPEDGVSGTDFDYSVSNFVDNLYGYPEGKDTLRETIKFMYTDWADRDNPETRRKTLVALFTDHQWVEPSVVTADLHARYGSPTYFYAFYHHCQSLMKPAWSDAAHGDEVPYVFGVPMVGPTDLFPCNFSKNDVMLSAVVMTYWTNFAKTGDPNKPVPQDTKFIHTKANRFEEVAWSKYNPRDQLYLHIGLKPRVRDHYRATKVAFWKHLVPHLYNLHDMFHYTSTTTKVPPPDTTHSSHITRRPNGKTWSTKRPAISPAYSNENAQGSWNGDQDAGPLLVENPRDYSTELSVTIAVGASLLFLNVLAFAALYYRKDKRRQEPLRQPSPQRGAGAPELGAAPEEELAALQLGPTHHECEAGPPHDTLRLTALPDYTLTLRRSPDDIPLMTPNTITMIPNSLVGLQTLHPYNTFAAGFNSTGLPHSHSTTRV [Q9NZ94]”, the “percentage of EdU-negative” value worked out at 24.2 ± 1.1% in the data set with MCF7 (setting [3]), 24.1 ± 1.1% in the data set on MCF7 (setting [4]), 5.8 ± 1.5% in the data set with hTERT-HMEC (setting [3]) and 10.2 ± 2.3% in the data set with hTERT-HMEC (setting [4]).
In the case of Q9ULL4, the “percentage of EdU-negative” value stood at 23.6 ± 1.5% with MCF7 (setting [5]), 27.8 ± 0.59% in the data set with MCF7 (setting [6]), 5.08 ± 0.93% in the data set with hTERT-HMEC (setting [5]) and 5.74 ± 0.25% in the data set on hTERT-HMEC (setting [6]).
For “MSRQLLPVLLLLLLRASCPWGQEQGARSPSEEPPEEEIPKEDGILVLSRHTLGLALREHPALLVEFYAPWCGHCQALAPEYSKAAAVLAAESMVVTLAKVDGPAQRELAEEFGVTEYPTLKFFRNGNRTHPEEYTGPRDAEGIAEWLRRRVGPSAMRLEDEAAAQALIGGRDLVVIGFFQDLQDEDVATFLALAQDALDMTFGLTDRPRLFQQFGLTKDTVVLFKKFDEGRADFPVDEELGLDLGDLSRFLVTHSMRLVTEFNSQTSAKIFAARILNHLLLFVNQTLAAHRELLAGFGEAAPRFRGQVLFVVVDVAADNEHVLQYFGLKAEAAPTLRLVNLETTKKYAPVDGGPVTAASITAFCHAVLNGQVKPYLLSQEIPPDWDQRPVKTLVGKNFEQVAFDETKNVFVKFYAPWCTHCKEMAPAWEALAEKYQDHEDIIIAELDATANELDAFAVHGFPTLKYFPAGPGRKVIEYKSTRDLETFSKFLDNGGVLPTEEPPEEPAAPFPEPPANSTMGSKEEL”, the “percentage of EdU-negative” value in the data set on MCF7 (setting [7]) amounted to 34 ± 1.9%; in the data set with MCF7 (setting [8]), 26.76 ± 0.05%; with hTERT-HMEC (setting [7]), 5.52 ± 0.95%; with hTERT-HMEC (setting [8]), 5.36 ± 0.59%.
For “MCLSHLENMPLSHSRTQGAQRSSWKLWLFCSIVMLLFLCSFSWLIFIFLQLETAKEPCMAKFGPLPSKWQMASSEPPCVNKVSDWKLEILQNGLYLIYGQVAPNANYNDVAPFEVRLYKNKDMIQTLTNKSKIQNVGGTYELHVGDTIDLIFNSEHQVLKNNTYWGIILLANPQFIS [Q9UNG2]”, the “percentage of EdU-negative” value with MCF7 (setting [9]) was 24.5 ± 2.7%; in the data set with MCF7 (setting [10]) it was 27 ± 1.1%; in the data set on hTERT-HMEC (setting [9]), 5.8 ± 0.82%; with hTERT-HMEC (setting [10]) it was 7.64 ± 0.14%.
Take “MAAALFVLLGFALLGTHGASGAAGFVQAPLSQQRWVGGSVELHCEAVGSPVPEIQWWFEGQGPNDTCSQLWDGARLDRVHIHATYHQHAASTISIDTLVEEDTGTYECRASNDPDRNHLTRAPRVKWVRAQAVVLVLEPGTVFTTVEDLGSKILLTCSLNDSATEVTGHRWLKGGVVLKEDALPGQKTEFKVDSDDQWGEYSCVFLPEPMGTANIQLHGPPRVKAVKSSEHINEGETAMLVCKSESVPPVTDWAWYKITDSEDKALMNGSESRFFVSSSQGRSELHIENLNMEADPGQYRCNGTSSKGSDQAIITLRVRSHLAALWPFLGIVAEVLVLVTIIFIYEKRRKPEDVLDDDDAGSAPLKSSGQHQNDKGKNVRQRNSS”: the “percentage of EdU-negative” value turned out to be 22.7 ± 2.4% in the data set on MCF7 (setting [11]), 25.2 ± 1.3% in the data set with MCF7 (protein concentration 0.225 µM), 5.59 ± 0.91% with hTERT-HMEC (setting [11]) and 5.94 ± 1.8% in the data set on hTERT-HMEC (protein concentration 0.225 µM).
For the substance Q9BXJ3, the “percentage of EdU-negative” value in the data set on MCF7 (setting [12]) is 27.3 ± 3.6%; with MCF7 (setting [13]), 23.8 ± 1.1%; in the data set on hTERT-HMEC (setting [12]) it was 5.17 ± 0.79%; in the data set with hTERT-HMEC (setting [13]), 4.77 ± 0.24%.
In the case of “MLPPMALPSVSWMLLSCLMLLSQVQGEEPQRELPSARIRCPKGSKAYGSHCYALFLSPKSWTDADLACQKRPSGNLVSVLSGAEGSFVSSLVKSIGNSYSYVWIGLHDPTQGTEPNGEGWEWSSSDVMNYFAWERNPSTISSPGHCASLSRSTAFLRWKDYNCNVRLPYVCKFTD”, the “percentage of EdU-negative” value in the data set with MCF7 (setting [14]) came to 24.2 ± 2.7%; in the data set with MCF7 (setting [15]), 24.3 ± 1.6%; with MCF7 (setting [16]) it was 26.7 ± 1.1%; in the data set on MCF7 (setting [17]) it was 27.4 ± 2.9%; in the data set on hTERT-HMEC (setting [14]), 5.46 ± 0.53%; in the data set on hTERT-HMEC (setting [15]) it was 5.04 ± 0.18%. The “percentage of EdU-negative” value amounted to 7.94 ± 0.33% in the data set on hTERT-HMEC (setting [16]) and 6.63 ± 1.3% in the data set on hTERT-HMEC (setting [17]).
